In patent US20230265187A1 (published 2023):

T1: his-tagged murine TIGIT (Acro Biosystems #TIT-M52E6) (murine, UniProt P86176 29-148, limits assumed)
T1 construct: Bought protein; also called mouse his-tagged TIGIT; not shown: his tag
T1 sequence (looked up): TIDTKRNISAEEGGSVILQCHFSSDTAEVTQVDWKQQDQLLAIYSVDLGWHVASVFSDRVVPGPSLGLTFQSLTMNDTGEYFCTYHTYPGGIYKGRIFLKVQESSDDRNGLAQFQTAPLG

T2: his-tagged human TIGIT (Acro Biosystems #TIT-H52H3) (human, UniProt Q495A1 22-141)
T2 construct: Bought protein; also called His-tagged-TIGIT (human); not shown: his tag
T2 sequence (looked up): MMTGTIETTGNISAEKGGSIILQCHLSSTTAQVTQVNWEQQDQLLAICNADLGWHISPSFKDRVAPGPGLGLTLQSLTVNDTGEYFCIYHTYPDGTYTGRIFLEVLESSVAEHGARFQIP

T3: human TIGIT on Jurkat cells (TIGIT/NFAT reporter Jurkat cells, BPS Bioscience #60538); Promega TIGIT Effector … (human, UniProt Q495A1 22-244)
T3 construct: whole, on cells; Same protein on two bought Jurkat lines (flow cytometry: BPS; bioassay: Promega); also called hu TIGIT cells; cells expressing human TIGIT
T3 sequence (looked up): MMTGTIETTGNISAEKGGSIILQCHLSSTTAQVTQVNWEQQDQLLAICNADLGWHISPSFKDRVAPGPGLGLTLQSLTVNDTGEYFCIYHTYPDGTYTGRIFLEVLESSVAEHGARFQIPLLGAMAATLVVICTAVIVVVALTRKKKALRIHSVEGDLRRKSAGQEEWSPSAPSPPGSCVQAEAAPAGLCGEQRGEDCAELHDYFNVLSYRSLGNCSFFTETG


How the values were obtained:
[1] = molecular target: T4, His-tagged cynomolgus monkey TIGIT (Acro Biosystems #TIT-05223) (cynomolgus monkey, UniProt A0A7N9I9V4 89-209); test: SPR (Carterra LSA), scFv-Fc captured, His-TIGIT analyte
T4 construct: Bought protein; also called cyno TIGIT; cynomolgus TIGIT; not shown: His tag
T4 sequence (A0A7N9I9V4 entry or part of it): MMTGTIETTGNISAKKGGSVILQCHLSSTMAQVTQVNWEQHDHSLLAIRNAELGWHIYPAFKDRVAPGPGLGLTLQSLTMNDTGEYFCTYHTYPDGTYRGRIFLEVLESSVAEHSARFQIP
Procedure: (§1) Binding affinities of anti-TIGIT antibodies to human, cyno, and murine TIGIT were measured by Surface Plasmon Resonance (SPR) on a Carterra LSA instrument. Goat anti-human Fc antibody was amine coupled to a HC30M chip. ScFv-Fc supernatants were diluted 30-fold with HBSTE and were captured by the anti-human Fc coupled HC30M chip. A 1:2 dilution series of his-tagged human TIGIT, starting at 400 nM, was injected onto the chip for binding. A dilution series was also carried out for cyno TIGIT and murine TIGIT. Data were analyzed using the Carterra™ Kinetics software.

[2] = molecular target: T1, his-tagged murine TIGIT (Acro …); test: as above
Procedure: as §1

[3] = molecular target: T2, his-tagged human TIGIT (Acro Biosystems …); test: as above
Procedure: as §1

[4] = molecular target: T4, His-tagged cynomolgus monkey TIGIT …; test: ELISA, coated His-TIGIT, 1 ug/ml
[5] = molecular target: T1, his-tagged murine TIGIT (Acro …); test: ELISA, coated His-TIGIT, 1 ug/ml
[6] = molecular target: T2, his-tagged human TIGIT (Acro Biosystems …); test: ELISA, coated His-TIGIT, 1 ug/ml
[7] = molecular target: T3, human TIGIT on Jurkat cells (TIGIT/NFAT …); test: flow cytometry, TIGIT/NFAT Jurkat cells, 10 ug/ml
[8] = molecular target: T3, human TIGIT on Jurkat cells (TIGIT/NFAT …); test: cell-based or functional assay

Binder | Kd [1] | Kd [2] | Kd [3] | Elisa OD450 [4] | Elisa OD450 [5] | Elisa OD450 [6] | MFI [7] | max. signal (% of 22G2) [8]
43586p2.D06 (scFv, V domains shown) VH: EVQLLESGGGLVQPGGSLRLSCAASGFTFSSYWMNWVRQAPGKGLEWVSGIYSGGTTYYADSVKGRFTISRDNSKNTLYLQMNSLRAEDTAVYYCTRENWKENNAMDVWGQGTTVTVSS VL: QSVLTQPPSASGTPGQRVTISCSGVTSNIASYHVYWYQQLPGTAPKLLIYLNSQRPSGVPDRFSASKSGTSASLAISGLQSEDEADYYCATWDGSLNGWVFGGGTKLTVL | 1.06 nM | 3.09 nM | 0.344 nM | 1.66 OD450 | 1.36 OD450 | 1.77 OD450 | 15400 MFI | 
43586p2.G02 (scFv, V domains shown) VH: EVQLLESGGGLVQPGGSLRLSCAASGFTFSSYWMNWVRQAPGKGLEWVSGIYSGGTTYYADSVKGRFTISRDNSKNTLYLQMNSLRAEDTAVYYCTRENWKENNAMDVWGQGTTVTVSS VL: QSVLTQPPSASGTPGQRVTISCSGVTSNIASYHVYWYQQLPGTAPKLLIYLNSQRPSGVPDRFSASKSGTSASLAISGLQSEDEADYYCATWDGSQNGWVFGGGTKLTVL | 2.37 nM | 1.57 nM | 0.639 nM | 1.5 OD450 | 1.7 OD450 | 1.88 OD450 | 7590 MFI | 
43352p1.A11 (scFv, V domains shown) VH: DVQLVESGGGVVRPGESLRLSCAASGFTFSSHAMSWVRQAPGEGLEWVSLTSGNGVSAYYADSVKGRFTISRDNSKNTLYLQMNSLSAEDTAIYYCARGTYLISFFDYWGLGTLVTVSS VL: QSVLTQPPSASGTPGQRVTISCSGISAKIGNNYVSWYQQLPGTAPKLLIYFNNQRPSGVPDRFSGSKSGTSASLAISGLQSEDEADYYCASWDDSLNAWLFGGGTKLTVL |  |  | 0.0716 nM | 0.048 OD450 | 0.056 OD450 | 0.677 OD450 | 8790 MFI | 101 % of 22G2
43352p1.D11 (scFv, V domains shown) VH: DVQLVESGGGVVRPGESLRLSCAASGFTFSSHAMSWVRQAPGEGLEWVSLISGNGVSAYYADSVKGRFTISRDNSKNTLYLQMNSLSAEDTAIYYCARGTYLISFFDYWGLGTLVTVSS VL: QSVLTQPPSASGTPGQRVTISCSGISAKIGNNYVSWYQQLPGTAPKLLIYFNNQRPSGVPDRFSGSKSGTSASLAISGLQSEDEADYYCASWDDSLNAWLFGGGTKLTVL |  |  | 0.0685 nM | 0.044 OD450 | 0.046 OD450 | 2.15 OD450 | 8650 MFI | 105 % of 22G2
43645p1.D7 (scFv, V domains shown) VH: EVQLLESGGGLVQPGGSLRLSCAASGFTFSRNSMSWVRQAPGKGLEWVSTINSGSSYTYYADSVKGRFTISRDNSKNTLYLQMNSLRAEDTAVYYCAKDNCNGYHCYGMDVWGLGTTVTVSS VL: QSVLTQPPSASGTPGQRVTISCSGSTSNVGDHYVHWYQQLPGTAPKLLIYKDDQRPSGVPDRFSGSKSGTSASLAISGLQSEDEADYYCSTWDNTLNGWVFGGGTKLTVL | 6.27 nM |  | 6.76 nM | 1.88 OD450 | 0.32 OD450 | 2.06 OD450 | 9660 MFI | 57 % of 22G2
43586p1.1.A7 (scFv, V domains shown) VH: EVQLLESGGGLVQPGGSLRLSCAASGFTFTSYAMSWVRQAPGKGLEWVAGISYDGSIQYYADSVKGRLTISRDNSKNTLNLQMNSLRAGDTAVYYCAKHLTGGTTDYYYYGMDVWGQGTTVTVSS VL: QSVMTQPPSASGTPGQRVTISCSGSSSNIGTNRYVHWYKQVPGTAPKLLIYGNHQRPSGVPDRFSGSKSGTSASLAISGLQSEDEADYYCAAWDGSLSGWVFGGGTKLTVL | 20 nM |  | 0.721 nM | 1.34 OD450 | 0.045 OD450 | 2.01 OD450 | 9000 MFI | 89 % of 22G2
43645p1.C11 (scFv, V domains shown) VH: EVQLLESGGGLVQPGGSLRPSCATSGFTFSSYWMSWVRQAPGKGLEWVSGIHISDSTYYADSVKGRFTISRDNSKNTLYLQMNSLRAEDTAVYYCAKGHTVLQYGMDVWGQGTTVTVSS VL: QSGLTQPPSASGTPGQRVTISCSGDISNTRNNYVSWYQQLPGTAPKLLIYGNHQRPSGVPDRFSGSKSATSASLAISGLQSEDEADYYCGTWDNTLNAWVFGGGTKLTVL |  |  | 0.0888 nM | 1.65 OD450 | 1.69 OD450 | 2.18 OD450 | 9040 MFI | 119 % of 22G2
43586p1.1.G9 (scFv, V domains shown) VH: EVQLLESGGGLVQPGGSLRLSCAASGFTFTTYAMSWVRQAPGKGLEWVAGISYIGSDKYYADSVKGRLTISRDNSKNTLYLQMDSLRAEDTAVYYCAKHLTGGTTDYYYYGMDVWGQGTTVTVS VL: QSVLTQPPSASGTPGQRVTISCSGSTSNIGTSRYVHWYQHLPGTAPKLLIYLDSQRPSGVPDRFSASKSGTSASLAISGLQSEDEADYYCSAWDDSLSAWVFGGGTKLTVL | 18.8 nM |  | 1.08 nM | 1.6 OD450 | 0.046 OD450 | 2.23 OD450 | 9000 MFI | 113 % of 22G2
43586p2.C09 (scFv, V domains shown) VH: EVQLLESGGGLVQPGGSLRLSCTASGFTFTSYAMSWVSQAPGKGLEWVAGISYDGSIKYYADSVKGRLTISRDNSKNTLYLQMNSLRAEDTAIYYCAKHLTGGTTDYYYYAMDVWGQGTTVTVSS VL: QSVLTQPPSASGTPGQRVTISCSGSTSNIGTNRYVHWYQQFPGTAPKLLIYGTDRRPSGVSDRFSGSKSGTSASLAISGLQSEDEADYYCAAWDDSLSAWVFGGGTKLTVL | 2.62 nM |  | 0.354 nM | 1.79 OD450 | 0.046 OD450 | 2.07 OD450 | 8830 MFI | 115 % of 22G2
43586p2.B02 (scFv, V domains shown) VH: EVQLLESGGGLVQPGGSLRLSCAASGFTFTSYAMSWVSQAPGKGLEWVAGISYDGSSKYYADSVKGRLTISRDNSKNTLYLQMNSLRAEDTAIYYCAKHLTGGTTDYYYYAMDVWGQGTTVTVSS VL: QSVLTQPPSASGTPGQRVTISCSGSRSNIGTNRYVHWYQQLPGTAPKLLIYGNHQRPSGVPDRFSGSKSGTSASLAISGLQSEDEADYYCAAWDDSLSAWVFGGGTKLTVL | 26.8 nM |  | 2.19 nM | 1.59 OD450 | 0.046 OD450 | 1.94 OD450 | 9090 MFI | 106 % of 22G2
43645p1.C9 (scFv, V domains shown) VH: EVQLLESGGGLVQPGGSLRLSCAASGFTFSDFWMSWVRQAPGKGLEWVSSIINIQTYDYATYYADSVKGRFTISRDNSKNTLYLQMNSLRAEDTAIYYCAKDVAPGLPGGMDVWGQGTTVTVSS VL: QSVLTQPPSASGTPGQRVTISCSGSNSNIRNNFVSWYQHLPGTAPKLLIYGNSQRPSGVPDRFSGSKSGTSASLAISGLQSEDEADYYCTSWDFSVSGWVFGGGTKLTVL | 23.5 nM |  | 0.195 nM | 1.39 OD450 | 0.065 OD450 | 1.86 OD450 | 16500 MFI | 
43586p1.1.C2 (scFv, V domains shown) VH: EVQLLESGGGLVQPGGSLRLSCAASGFTFSDYYMNWVRQAPGKGLEWVSSINWNGGTTYYADSVKGRFTISRDNSRNTLYLQMNSLRAEDTAVYYCAKDQNWNFYYGMDVWGQGTTVTVSS VL: QSVLTQPPSASGTPGQRVTISCSGGSSNIGTNYVSWYQQLPGTAPKLLLYKEDQRPSGVPDRFSGSKSGTSASLAISGLQSEDEADYYCATWDGSLRSWVFGGGTKLTVL | 3.69 nM |  | 0.383 nM | 0.817 OD450 | 0.046 OD450 | 1.49 OD450 | 6710 MFI | 
